From patent US12630600B2 (MEDIMMUNE LIMITED, priority 2022, dated 2026)
Starred links: 1 amine or outer side, 2 acyl side, 3 side chain; linkers in the order of their positions; H or OH if unused. Non-standard residues stand in square brackets, D forms with d. Residues, ends and D or L forms follow the SMILES beside them. Groups on a side chain read outwards from the residue. No end group written: not given here. *: point of attachment. C20 diacid = O=C(O)CCCCCCCCCCCCCCCCCCC(=O)*; C18 diacid = O=C(O)CCCCCCCCCCCCCCCCC(=O)*; γGlu = O=C(O)[C@H](CCC(=O)[*:2])N[*:1]; αMeF = C[C@](N)(Cc1ccccc1)C(=O)O; PEG2 = NCCOCCOCCC(=O)O; AEEA = NCCOCCOCC(=O)O; Aib = CC(C)(N)C(=O)O

How the values were obtained:
[1] = biological target: T1, human GLP-1 receptor (hGLP-1R) (Homo sapiens, UniProt P43220); assay: cAMP production (HTRF) in CHO cells expressing human GLP-1 receptor; type: cell-based; conditions: % GLP-1R activity relative to GLP-1 / % GlucR activity relative to glucagon
T1 construct: expressed in transfected cells; host or cells: CHO
Procedure: Cells were re-suspended in assay buffer at a batch-dependent optimized concentration (typically hGLP-1R cells at 1×10^5 cells/mL, hGCGR cells at 2×10^5 cells/mL).
Cells were added to the assay plate using a multidrop dispenser and incubated at room temperature for 30 minutes before measuring the cAMP level using a cAMP dynamic 2 homogeneous time resolved Fluorescence (HTRF) kit (Cisbio Bioassays #62AM4PEJ) following the two-step protocol as per manufacturer's recommendations. In brief, anti-cAMP cryptate (donor fluorophore) and cAMP-d2 (acceptor fluorophore) were made up separately by diluting each 1 in 20 in conjugate and lysis buffer provided in the kit. Anti-cAMP cryptate was added to all wells of the assay plate, followed by cAMP-d2 added to all wells except non-specific binding (NSB) wells (to which conjugate and lysis buffer was added).
Data was transformed to % Delta F as described in the manufacturer's guidelines and analyzed by 4-parameter logistic fit to determine EC50 values.

human GLP-1 receptor = human GLP-1 receptor (human, UniProt P43220); assay: cell-based or functional assay
human glucagon receptor = human glucagon receptor (human, UniProt P47871); assay: cell-based or functional assay

T1 sequence (P43220 24-463): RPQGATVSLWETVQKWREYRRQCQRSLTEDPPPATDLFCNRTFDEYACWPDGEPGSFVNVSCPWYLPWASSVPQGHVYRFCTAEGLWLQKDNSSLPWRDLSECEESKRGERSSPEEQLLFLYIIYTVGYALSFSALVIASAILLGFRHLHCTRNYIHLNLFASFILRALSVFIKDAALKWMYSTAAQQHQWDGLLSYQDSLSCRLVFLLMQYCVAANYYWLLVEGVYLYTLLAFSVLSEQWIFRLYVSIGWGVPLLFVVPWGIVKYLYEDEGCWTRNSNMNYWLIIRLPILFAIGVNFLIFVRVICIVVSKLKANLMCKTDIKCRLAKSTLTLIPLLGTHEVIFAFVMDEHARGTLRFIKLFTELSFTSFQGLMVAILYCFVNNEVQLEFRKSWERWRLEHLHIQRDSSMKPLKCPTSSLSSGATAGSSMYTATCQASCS

| Molecule | % Relative Potency Ratio ([1]; Table 8) | % Relative Potency Ratio ([1]; Table 9) | hGLP-1R EC50 (pM) (human GLP-1 receptor) | hGluc-R EC50 (pM) (human glucagon receptor) |
| --- | --- | --- | --- | --- |
| CC[C@H](C)[C@H](NC(=O)[C@H](Cc1c[nH]c2ccccc12)NC(=O)[C@H](CCCCNC(=O)CC[C@H](NC(=O)CCCCCCCCCCCCCCCCC(=O)O)C(=O)O)NC(=O)[C@@H](NC(=O)[C@H](Cc1ccccc1)NC(=O)[C@H](CC(=O)O)NC(=O)[C@H](CCC(N)=O)NC(=O)[C@H](C)NC(=O)[C@H](C)NC(=O)[C@H](CCC(N)=O)NC(=O)[C@H](CO)NC(=O)[C@H](CC(=O)O)NC(=O)[C@H](CC(C)C)NC(=O)[C@](C)(Cc1ccccc1)NC(=O)[C@H](CCCCN)NC(=O)[C@H](CO)NC(=O)[C@@H](NC(=O)[C@H](CC(=O)O)NC(=O)[C@H](CO)NC(=O)[C@@H](NC(=O)[C@](C)(Cc1ccccc1)NC(=O)[C@H](CO)NC(=O)CNC(=O)[C@H](Cc1c[nH]cn1)NC(=O)C(C)(C)NC(=O)[C@@H](N)Cc1c[nH]cn1)[C@@H](C)O)C(C)C)C(C)C)C(=O)N[C@@H](C)C(=O)N[C@@H](CC(N)=O)C(=O)N[C@H](C(N)=O)[C@@H](C)O [Peptide 351] (H-H[Aib]HGS[αMeF]TSDVSK[αMeF]LDSQAAQDFVK([γGlu-C18 diacid])WIANT-NH2) | 0.7 | – | – | – |
| CC[C@H](C)[C@H](NC(=O)[C@H](Cc1c[nH]c2ccccc12)NC(=O)[C@H](CCCCNC(=O)CCOCCOCCNC(=O)CCOCCOCCNC(=O)CC[C@H](NC(=O)CC[C@H](NC(=O)CCCCCCCCCCCCCCCCC(=O)O)C(=O)O)C(=O)O)NC(=O)[C@@H](NC(=O)[C@H](Cc1ccccc1)NC(=O)[C@H](CC(=O)O)NC(=O)[C@H](CCC(N)=O)NC(=O)[C@H](C)NC(=O)[C@H](C)NC(=O)[C@H](CCC(N)=O)NC(=O)[C@H](CO)NC(=O)[C@H](CC(=O)O)NC(=O)[C@H](CC(C)C)NC(=O)[C@](C)(Cc1ccccc1)NC(=O)[C@H](CCCCN)NC(=O)[C@H](CO)NC(=O)[C@@H](NC(=O)[C@H](CC(=O)O)NC(=O)[C@H](CO)NC(=O)[C@@H](NC(=O)[C@](C)(Cc1ccccc1)NC(=O)[C@H](CO)NC(=O)CNC(=O)[C@H](Cc1c[nH]cn1)NC(=O)C(C)(C)NC(=O)[C@@H](N)Cc1c[nH]cn1)[C@@H](C)O)C(C)C)C(C)C)C(=O)N[C@@H](C)C(=O)N[C@@H](CC(N)=O)C(=O)N[C@H](C(N)=O)[C@@H](C)O [Peptide 352] (H-H[Aib]HGS[αMeF]TSDVSK[αMeF]LDSQAAQDFVK([PEG2-PEG2-γGlu-γGlu-C18 diacid])WIANT-NH2) | 1.4 | – | – | – |
| HSQGS(αMePhe)TSDK((PEG)2-(PEG)2-γE-γE-Stearoyl)10SK(Dip)LDS(ß-dimethylArg)AAQD(αMePhe)VE(Aib)LANT-amide [Peptide 393] | – | 9.3 | – | – |
| CC[C@H](C)[C@H](NC(=O)[C@H](Cc1c[nH]c2ccccc12)NC(=O)[C@H](CCCCNC(=O)COCCOCCNC(=O)COCCOCCNC(=O)CC[C@H](NC(=O)CCCCCCCCCCCCCCCCCCC(=O)O)C(=O)O)NC(=O)[C@@H](NC(=O)[C@H](Cc1ccccc1)NC(=O)[C@H](CC(=O)O)NC(=O)[C@H](CCC(N)=O)NC(=O)[C@H](C)NC(=O)C(C)(C)NC(=O)[C@H](CCCNC(=N)N)NC(=O)[C@H](CO)NC(=O)[C@H](CC(=O)O)NC(=O)[C@H](CC(C)C)NC(=O)[C@](C)(Cc1ccccc1)NC(=O)[C@H](CCCCN)NC(=O)[C@H](CO)NC(=O)[C@@H](NC(=O)[C@H](CC(=O)O)NC(=O)[C@H](CO)NC(=O)[C@@H](NC(=O)[C@](C)(Cc1ccccc1)NC(=O)[C@H](CO)NC(=O)CNC(=O)[C@H](Cc1c[nH]cn1)NC(=O)C(C)(C)NC(=O)[C@@H](N)Cc1c[nH]cn1)[C@@H](C)O)C(C)C)C(C)C)C(=O)N[C@@H](C)C(=O)N[C@@H](CC(N)=O)C(=O)N[C@H](C(N)=O)[C@@H](C)O [Peptide 368, H(Aib)HGS(αMePhe)TSDVSK(αMePhe)LDSR(Aib)AQDFVK(O2OC-O2OC-γE-C20diacid)24WIANT-amide] (H-H[Aib]HGS[αMeF]TSDVSK[αMeF]LDSR[Aib]AQDFVK([AEEA-AEEA-γGlu-C20 diacid])WIANT-NH2; N-terminus assumed) | 3.1 | – | – | – |
| H[Aib]QGTFTSDVSE[αMeF]LDSERAK([AEEA-AEEA-γGlu-C18 diacid])DFVRWLEAGG-OH (N-terminus assumed; SMILES CC(C)C[C@H](NC(=O)[C@H](Cc1c[nH]c2ccccc12)NC(=O)[C@H](CCCNC(=N)N)NC(=O)[C@@H](NC(=O)[C@H](Cc1ccccc1)NC(=O)[C@H](CC(=O)O)NC(=O)[C@H](CCCCNC(=O)COCCOCCNC(=O)COCCOCCNC(=O)CC[C@H](NC(=O)CCCCCCCCCCCCCCCCC(=O)O)C(=O)O)NC(=O)[C@H](C)NC(=O)[C@H](CCCNC(=N)N)NC(=O)[C@H](CCC(=O)O)NC(=O)[C@H](CO)NC(=O)[C@H](CC(=O)O)NC(=O)[C@H](CC(C)C)NC(=O)[C@](C)(Cc1ccccc1)NC(=O)[C@H](CCC(=O)O)NC(=O)[C@H](CO)NC(=O)[C@@H](NC(=O)[C@H](CC(=O)O)NC(=O)[C@H](CO)NC(=O)[C@@H](NC(=O)[C@H](Cc1ccccc1)NC(=O)[C@@H](NC(=O)CNC(=O)[C@H](CCC(N)=O)NC(=O)C(C)(C)NC(=O)[C@@H](N)Cc1c[nH]cn1)[C@@H](C)O)[C@@H](C)O)C(C)C)C(C)C)C(=O)N[C@@H](CCC(=O)O)C(=O)N[C@@H](C)C(=O)NCC(=O)NCC(=O)O) [Peptide 524] | – | – | 366 pM | > 24400 pM |
| H[Aib]QGTFTSDVSK[αMeF]LDSERAK([AEEA-AEEA-γGlu-C18 diacid])DFVQWLEA[Aib]G-OH (N-terminus assumed; SMILES CC(C)C[C@H](NC(=O)[C@H](Cc1c[nH]c2ccccc12)NC(=O)[C@H](CCC(N)=O)NC(=O)[C@@H](NC(=O)[C@H](Cc1ccccc1)NC(=O)[C@H](CC(=O)O)NC(=O)[C@H](CCCCNC(=O)COCCOCCNC(=O)COCCOCCNC(=O)CC[C@H](NC(=O)CCCCCCCCCCCCCCCCC(=O)O)C(=O)O)NC(=O)[C@H](C)NC(=O)[C@H](CCCNC(=N)N)NC(=O)[C@H](CCC(=O)O)NC(=O)[C@H](CO)NC(=O)[C@H](CC(=O)O)NC(=O)[C@H](CC(C)C)NC(=O)[C@](C)(Cc1ccccc1)NC(=O)[C@H](CCCCN)NC(=O)[C@H](CO)NC(=O)[C@@H](NC(=O)[C@H](CC(=O)O)NC(=O)[C@H](CO)NC(=O)[C@@H](NC(=O)[C@H](Cc1ccccc1)NC(=O)[C@@H](NC(=O)CNC(=O)[C@H](CCC(N)=O)NC(=O)C(C)(C)NC(=O)[C@@H](N)Cc1c[nH]cn1)[C@@H](C)O)[C@@H](C)O)C(C)C)C(C)C)C(=O)N[C@@H](CCC(=O)O)C(=O)N[C@@H](C)C(=O)NC(C)(C)C(=O)NCC(=O)O) [Peptide 525] | – | – | 177 pM | 2450 pM |
| H[Aib]QGTFTSDVSK[αMeF]LDSERAK([AEEA-AEEA-γGlu-C20 diacid])DFVAWLEAGG-OH (N-terminus assumed; SMILES CC(C)C[C@H](NC(=O)[C@H](Cc1c[nH]c2ccccc12)NC(=O)[C@H](C)NC(=O)[C@@H](NC(=O)[C@H](Cc1ccccc1)NC(=O)[C@H](CC(=O)O)NC(=O)[C@H](CCCCNC(=O)COCCOCCNC(=O)COCCOCCNC(=O)CC[C@H](NC(=O)CCCCCCCCCCCCCCCCCCC(=O)O)C(=O)O)NC(=O)[C@H](C)NC(=O)[C@H](CCCNC(=N)N)NC(=O)[C@H](CCC(=O)O)NC(=O)[C@H](CO)NC(=O)[C@H](CC(=O)O)NC(=O)[C@H](CC(C)C)NC(=O)[C@](C)(Cc1ccccc1)NC(=O)[C@H](CCCCN)NC(=O)[C@H](CO)NC(=O)[C@@H](NC(=O)[C@H](CC(=O)O)NC(=O)[C@H](CO)NC(=O)[C@@H](NC(=O)[C@H](Cc1ccccc1)NC(=O)[C@@H](NC(=O)CNC(=O)[C@H](CCC(N)=O)NC(=O)C(C)(C)NC(=O)[C@@H](N)Cc1c[nH]cn1)[C@@H](C)O)[C@@H](C)O)C(C)C)C(C)C)C(=O)N[C@@H](CCC(=O)O)C(=O)N[C@@H](C)C(=O)NCC(=O)NCC(=O)O) [Peptide 523] | – | – | 615 pM | > 24700 pM |
| H[Aib]QGTFTSDVSK[αMeF]LDSERAK([AEEA-AEEA-γGlu-C18 diacid])DFVAWLEA[Aib]G-OH (N-terminus assumed; SMILES CC(C)C[C@H](NC(=O)[C@H](Cc1c[nH]c2ccccc12)NC(=O)[C@H](C)NC(=O)[C@@H](NC(=O)[C@H](Cc1ccccc1)NC(=O)[C@H](CC(=O)O)NC(=O)[C@H](CCCCNC(=O)COCCOCCNC(=O)COCCOCCNC(=O)CC[C@H](NC(=O)CCCCCCCCCCCCCCCCC(=O)O)C(=O)O)NC(=O)[C@H](C)NC(=O)[C@H](CCCNC(=N)N)NC(=O)[C@H](CCC(=O)O)NC(=O)[C@H](CO)NC(=O)[C@H](CC(=O)O)NC(=O)[C@H](CC(C)C)NC(=O)[C@](C)(Cc1ccccc1)NC(=O)[C@H](CCCCN)NC(=O)[C@H](CO)NC(=O)[C@@H](NC(=O)[C@H](CC(=O)O)NC(=O)[C@H](CO)NC(=O)[C@@H](NC(=O)[C@H](Cc1ccccc1)NC(=O)[C@@H](NC(=O)CNC(=O)[C@H](CCC(N)=O)NC(=O)C(C)(C)NC(=O)[C@@H](N)Cc1c[nH]cn1)[C@@H](C)O)[C@@H](C)O)C(C)C)C(C)C)C(=O)N[C@@H](CCC(=O)O)C(=O)N[C@@H](C)C(=O)NC(C)(C)C(=O)NCC(=O)O) [Peptide 526] | – | – | 194 pM | 690 pM |
